From patent US20240301023A1 (PREVECEUTICAL MEDICAL, published 2024)
Square brackets hold non-standard residues; d marks the D form. Primed or numbered codes have the meaning given here. Ends that are not written are not given here. Phe(4-NO2) = N[C@@H](Cc1ccc([N+](=O)[O-])cc1)C(=O)O; Phe(4-Cl) = N[C@@H](Cc1ccc(Cl)cc1)C(=O)O; Phe(4-F) = N[C@@H](Cc1ccc(F)cc1)C(=O)O; Api = NC1(C(=O)O)CCNCC1; NMA″ = not defined here; NMA = N-methylarginine; Sar = CNCC(=O)O

B1: SEQ ID NO. 13: NH2-Tyr-Sar-(4-Cl)Phe-Leu-NMA-DArg-NH2 (peptide)
peptide: H-Y[Sar][Phe(4-Cl)]LX[dR]-NH2
modifications: not fully specified (residue 5); printed as NH2-Tyr-Sar-(4-Cl)Phe-Leu-NMA-DArg-NH2
B2: CR845 (SEQ ID NO. 35: DPhe-DPhe-DLeu-DLys-Cap-CO2H) (peptide)
peptide: [dF][dF][dL][dK][Api]-OH
modifications: N-terminus assumed
SMILES: CC(C)C[C@@H](NC(=O)[C@@H](Cc1ccccc1)NC(=O)[C@H](N)Cc1ccccc1)C(=O)N[C@H](CCCCN)C(=O)NC1(C(=O)O)CCNCC1
B3: SEQ ID NO. 16: NH2-Tyr-Sar-(4-Cl)Phe-Leu-Lys-DArg-NH2 (peptide)
peptide: H-Y[Sar][Phe(4-Cl)]LK[dR]-NH2
SMILES: CC(C)C[C@H](NC(=O)[C@H](Cc1ccc(Cl)cc1)NC(=O)CN(C)C(=O)[C@@H](N)Cc1ccc(O)cc1)C(=O)N[C@@H](CCCCN)C(=O)N[C@H](CCCNC(=N)N)C(N)=O
B4: SEQ ID NO. 28: NH2-Tyr-Sar-(4-Cl)Phe-Leu-Arg-DArg-C7H14-COOH (peptide)
peptide: H-Y[Sar][Phe(4-Cl)]LR[dR]
modifications: not fully specified (C-terminus); printed as NH2-Tyr-Sar-(4-Cl)Phe-Leu-Arg-DArg-C7H14-COOH

Biological target: T1, Kappa opioid receptor (KOR) (Homo sapiens (Human), UniProt P41145 1-380)
T1 sequence (P41145 whole entry, form in doubt): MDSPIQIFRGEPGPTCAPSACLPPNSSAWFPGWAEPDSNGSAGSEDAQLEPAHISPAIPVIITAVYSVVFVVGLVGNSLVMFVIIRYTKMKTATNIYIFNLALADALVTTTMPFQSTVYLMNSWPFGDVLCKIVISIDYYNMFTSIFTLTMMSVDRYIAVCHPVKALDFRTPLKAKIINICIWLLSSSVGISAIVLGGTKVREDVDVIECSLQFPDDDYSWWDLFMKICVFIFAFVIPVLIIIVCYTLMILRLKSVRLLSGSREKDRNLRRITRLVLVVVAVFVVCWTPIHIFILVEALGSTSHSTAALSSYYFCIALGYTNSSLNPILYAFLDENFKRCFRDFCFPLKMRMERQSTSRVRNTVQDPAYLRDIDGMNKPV
Assay: cell-based or functional assay

Row | Binder | Activity (EC50, nM), cAMP assay [nM]
1 | B1 | 4.54
2 | B2 | 0.37
3 | H-Y[Sar][Phe(4-Cl)]LR[NMA″]-NH2 (reading uncertain; also: printed as NH2-Tyr-Sar-(4-Cl)Phe-Leu-Arg-NMA-NH2) [SEQ ID NO. 17: NH2-Tyr-Sar-(4-Cl)Phe-Leu-Arg-NMA-NH2] | 3.9
4 | H-Y[Sar][Phe(4-NO2)]LR[dR]-{C7H14‑CONH2} [SEQ ID NO. 31: NH2-Tyr-Sar-(4-NO2)Phe-Leu-Arg-DArg-C7H14-CONH2] | 2.49
5 | H-Y[Sar]FLRR-NH2 [SEQ ID NO. 2: NH2-Tyr-Sar-Phe-Leu-Arg-Arg-NH2] | 8.6
6 | H-Y[Sar][Phe(4-Cl)]LR[dR]-NH2 [SEQ ID NO. 11: NH2-Tyr-Sar-(4-Cl)Phe-Leu-Arg-DArg-NH2] | 6.1
7 | B3 | 26
8 | H-Y[Sar][Phe(4-F)]L[NMA][dR]-NH2 [SEQ ID NO. 14: NH2-Tyr-Sar-(4-F)Phe-Leu-NMA-DArg-NH2] | 11.6
9 | H-Y[Sar][Phe(4-NO2)]L[NMA][dR]-NH2 [SEQ ID NO. 15: NH2-Tyr-Sar-(4-NO2)Phe-Leu-NMA-DArg-NH2] | 13.5
10 | H-Y[Sar][Phe(4-F)]LR[dR]-NH2 [SEQ ID NO. 12: NH2-Tyr-Sar-(4-F)Phe-Leu-Arg-DArg-NH2] | 6.7
11 | B4 | 2.33

Biological target: Mu opioid receptor (MOR)
Sequence (P35372 whole entry): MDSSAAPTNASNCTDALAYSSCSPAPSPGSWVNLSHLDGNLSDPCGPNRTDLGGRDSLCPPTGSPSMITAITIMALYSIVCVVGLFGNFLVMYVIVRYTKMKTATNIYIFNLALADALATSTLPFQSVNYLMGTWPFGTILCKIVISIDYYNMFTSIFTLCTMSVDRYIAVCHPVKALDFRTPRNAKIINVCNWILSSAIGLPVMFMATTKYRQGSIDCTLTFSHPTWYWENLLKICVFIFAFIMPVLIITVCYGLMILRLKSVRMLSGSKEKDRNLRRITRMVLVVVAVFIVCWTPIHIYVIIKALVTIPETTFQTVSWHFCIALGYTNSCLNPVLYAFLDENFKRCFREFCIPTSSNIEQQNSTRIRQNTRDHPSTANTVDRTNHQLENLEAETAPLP
Assay: cell-based or functional assay

Row | Binder | Activity (EC50, nM), cAMP assay [nM]
12 | B1 | > 10000
13 | B2 | > 10000
14 | H-Y[Sar][Phe(4-Cl)]LR[NMA″]-NH2 (reading uncertain; also: printed as NH2-Tyr-Sar-(4-Cl)Phe-Leu-Arg-NMA-NH2) [SEQ ID NO. 17: NH2-Tyr-Sar-(4-Cl)Phe-Leu-Arg-NMA-NH2] | > 10000
15 | H-Y[Sar][Phe(4-NO2)]LR[dR]-{C7H14‑CONH2} [SEQ ID NO. 31: NH2-Tyr-Sar-(4-NO2)Phe-Leu-Arg-DArg-C7H14-CONH2] | > 10000
16 | H-Y[Sar]FLRR-NH2 [SEQ ID NO. 2: NH2-Tyr-Sar-Phe-Leu-Arg-Arg-NH2] | 6700
17 | H-Y[Sar][Phe(4-Cl)]LR[dR]-NH2 [SEQ ID NO. 11: NH2-Tyr-Sar-(4-Cl)Phe-Leu-Arg-DArg-NH2] | > 10000
18 | B3 | > 10000
19 | H-Y[Sar][Phe(4-F)]L[NMA][dR]-NH2 [SEQ ID NO. 14: NH2-Tyr-Sar-(4-F)Phe-Leu-NMA-DArg-NH2] | 4000
20 | H-Y[Sar][Phe(4-NO2)]L[NMA][dR]-NH2 [SEQ ID NO. 15: NH2-Tyr-Sar-(4-NO2)Phe-Leu-NMA-DArg-NH2] | > 10000
21 | H-Y[Sar][Phe(4-F)]LR[dR]-NH2 [SEQ ID NO. 12: NH2-Tyr-Sar-(4-F)Phe-Leu-Arg-DArg-NH2] | 3450
22 | B4 | > 10000

Biological target: Delta opioid receptor (DOR)
Assay: cell-based or functional assay

Row | Binder | Activity (EC50, nM), cAMP assay [nM]
23 | B1 | > 10000
24 | B2 | > 10000
25 | H-Y[Sar][Phe(4-NO2)]LR[dR]-{C7H14‑CONH2} [SEQ ID NO. 31: NH2-Tyr-Sar-(4-NO2)Phe-Leu-Arg-DArg-C7H14-CONH2] | > 10000
26 | H-Y[Sar]FLRR-NH2 [SEQ ID NO. 2: NH2-Tyr-Sar-Phe-Leu-Arg-Arg-NH2] | > 10000
27 | H-Y[Sar][Phe(4-Cl)]LR[dR]-NH2 [SEQ ID NO. 11: NH2-Tyr-Sar-(4-Cl)Phe-Leu-Arg-DArg-NH2] | > 10000
28 | H-Y[Sar][Phe(4-F)]L[NMA][dR]-NH2 [SEQ ID NO. 14: NH2-Tyr-Sar-(4-F)Phe-Leu-NMA-DArg-NH2] | 1660
29 | H-Y[Sar][Phe(4-NO2)]L[NMA][dR]-NH2 [SEQ ID NO. 15: NH2-Tyr-Sar-(4-NO2)Phe-Leu-NMA-DArg-NH2] | 1320
30 | H-Y[Sar][Phe(4-F)]LR[dR]-NH2 [SEQ ID NO. 12: NH2-Tyr-Sar-(4-F)Phe-Leu-Arg-DArg-NH2] | > 10000
31 | B4 | > 10000

Biological target: T1, Kappa opioid receptor (KOR)
Assay: cell-based or functional assay
Remark: another data set of the same source

Row | Binder | cAMP assay (ALPHAScreen), result at 1 µM peptide | cAMP assay (ALPHAScreen), result at 10 µM peptide
32 | B2 | 25.9 | 34.6
33 | H-Y[Sar]FLRR-NH2 [SEQ ID NO. 2: NH2-Tyr-Sar-Phe-Leu-Arg-Arg-NH2] | 21.6 | 32.4
34 | H-Y[Sar][Phe(4-Cl)]LR[dR]-NH2 [SEQ ID NO. 11: NH2-Tyr-Sar-(4-Cl)Phe-Leu-Arg-DArg-NH2] | 27.7 | 34

Biological target: Mu opioid receptor (MOR)
Assay: cell-based or functional assay
Remark: another data set of the same source

Row | Binder | cAMP assay (ALPHAScreen), result at 1 µM peptide | cAMP assay (ALPHAScreen), result at 10 µM peptide
35 | B2 | 0.37 | 8.07
36 | H-Y[Sar]FLRR-NH2 [SEQ ID NO. 2: NH2-Tyr-Sar-Phe-Leu-Arg-Arg-NH2] | -2.5 | 12.4
37 | H-Y[Sar][Phe(4-Cl)]LR[dR]-NH2 [SEQ ID NO. 11: NH2-Tyr-Sar-(4-Cl)Phe-Leu-Arg-DArg-NH2] | -0.86 | 1.37

Biological target: Delta opioid receptor (DOR)
Assay: cell-based or functional assay
Remark: another data set of the same source

Row | Binder | cAMP assay (ALPHAScreen), result at 1 µM peptide | cAMP assay (ALPHAScreen), result at 10 µM peptide
38 | B2 | -5.72 | 3.27
39 | H-Y[Sar]FLRR-NH2 [SEQ ID NO. 2: NH2-Tyr-Sar-Phe-Leu-Arg-Arg-NH2] | -0.47 | 22
40 | H-Y[Sar][Phe(4-Cl)]LR[dR]-NH2 [SEQ ID NO. 11: NH2-Tyr-Sar-(4-Cl)Phe-Leu-Arg-DArg-NH2] | -1.18 | 4.27
